Reference: patent US20260061051A1 (JUNO THERAPEUTICS, published 2026)

Tests used:
[1] = target: T1, Human DLL3 (hDLL3) antigen (human, UniProt Q9NYJ7 27-492); test: SPR, Biacore 8K, antibody captured on protein G chip, hDLL3 as analyte, multi-cycle
T1 construct: Soluble analyte in SPR; also called hDLL3 protein; soluble target antigen DLL3
T1 sequence: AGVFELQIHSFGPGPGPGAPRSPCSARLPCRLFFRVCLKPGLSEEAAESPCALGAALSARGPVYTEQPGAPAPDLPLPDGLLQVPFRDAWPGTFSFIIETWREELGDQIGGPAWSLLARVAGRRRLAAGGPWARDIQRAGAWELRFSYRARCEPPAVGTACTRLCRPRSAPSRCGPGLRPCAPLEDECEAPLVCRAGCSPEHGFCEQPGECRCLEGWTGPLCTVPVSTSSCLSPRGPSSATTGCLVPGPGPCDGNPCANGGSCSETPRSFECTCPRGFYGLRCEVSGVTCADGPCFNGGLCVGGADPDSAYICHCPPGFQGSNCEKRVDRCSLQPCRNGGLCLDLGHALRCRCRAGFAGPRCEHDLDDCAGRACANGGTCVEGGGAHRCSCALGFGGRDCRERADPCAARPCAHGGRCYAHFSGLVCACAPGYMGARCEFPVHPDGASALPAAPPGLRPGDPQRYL
Description: The Biacore SPR 8K machine was used for kinetics binding analysis. The sensor surface of a protein G chip (series s Cat #29179315) was used to capture the ligands. 2 μg/ml of purified anti-DLL3 antibody was diluted in running buffer (0.01M HEPES, 0.15 NaCl, 3 mM EDTA, 0.005% Tween-20). The diluted antibody was then injected at a flow rate of 10 μL/min for 60 seconds. Human DLL3 (hDLL3) antigen was diluted in the same running buffer to 6 concentrations (30, 10, 3.33, 1.11, 0.37 and 0 nM). hDLL3 was then injected on all channels (with each channel having its own reference point) at a flow rate of 30 uL/min for an association phase of 300 seconds, followed by 600 seconds of dissociation. 6 cycles of running analyte were repeated according to analyte concentrations in ascending order. After each cycle of interaction analysis, the sensor chip surface was regenerated completely with Glycine-HCL pH 1.5 at a flow rate of […] for 60 s. The binding of the anti-DLL3 antibody and hDLL3 protein was analyzed by multi-cycle method.

[2] = target: T2, Cynomolgus macaque (cyno) DLL3 expressed on 293H cells (cynomolgus macaque, UniProt Q9NYJ7 27-618 (human entry)); test: flow cytometry on 293H cells expressing cyno DLL3, Alexa 647 anti-human IgG1 secondary, 0.6 to 200 nM
T2 construct: also called Cyno DLL3 cell; cyno DLL3 ORF-GFP
T2 chain: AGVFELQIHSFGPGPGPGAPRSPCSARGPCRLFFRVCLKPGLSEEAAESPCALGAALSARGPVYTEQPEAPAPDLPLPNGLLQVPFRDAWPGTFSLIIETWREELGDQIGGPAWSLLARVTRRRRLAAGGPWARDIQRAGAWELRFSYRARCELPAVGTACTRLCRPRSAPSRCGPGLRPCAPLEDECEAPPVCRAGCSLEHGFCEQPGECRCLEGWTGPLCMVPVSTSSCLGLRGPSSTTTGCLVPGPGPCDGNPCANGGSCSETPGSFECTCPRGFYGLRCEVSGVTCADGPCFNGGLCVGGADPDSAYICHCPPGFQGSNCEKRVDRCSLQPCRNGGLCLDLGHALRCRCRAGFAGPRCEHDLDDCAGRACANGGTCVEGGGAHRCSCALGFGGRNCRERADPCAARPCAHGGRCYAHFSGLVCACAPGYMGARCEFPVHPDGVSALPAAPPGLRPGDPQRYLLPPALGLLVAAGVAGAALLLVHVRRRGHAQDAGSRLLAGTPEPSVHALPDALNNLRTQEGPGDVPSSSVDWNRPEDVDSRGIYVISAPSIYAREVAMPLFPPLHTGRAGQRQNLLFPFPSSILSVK
Description: (§1) Human DLL3 or cynomolgus macaque (cyno) DLL3 expressing cell lines were established by transfecting 293H cells with human DLL3 ORF-GFP or cyno DLL3 ORF-GFP plasmids and selecting stable single clone. A dose response curve for the anti-DLL3 mAb-1 binding to 293H cells expressing either human DLL3 or cyno DLL3 was generated by flow cytometry. Cells were incubated with increasing concentrations of anti-DLL3 mAb-1 in the range of 0.6 to 200 nM. Cells were washed then incubated with a secondary antibody (Alexa 647 conjugated anti-human IgG1) to measure the amount of antibody bound to the 293H cells. A dose response curve was fitted from the data using the non-linear regression function in GraphPad Prism version 8. Half-maximal concentration (EC₅₀) value was calculated from the dose response curve.

[3] = target: T3, Human DLL3 expressed on 293H cells (human, UniProt Q9NYJ7 27-618); test: flow cytometry on 293H cells expressing human DLL3, Alexa 647 anti-human IgG1 secondary, 0.6 to 200 nM
T3 construct: also called Human DLL3 cell; human DLL3 ORF-GFP
T3 sequence: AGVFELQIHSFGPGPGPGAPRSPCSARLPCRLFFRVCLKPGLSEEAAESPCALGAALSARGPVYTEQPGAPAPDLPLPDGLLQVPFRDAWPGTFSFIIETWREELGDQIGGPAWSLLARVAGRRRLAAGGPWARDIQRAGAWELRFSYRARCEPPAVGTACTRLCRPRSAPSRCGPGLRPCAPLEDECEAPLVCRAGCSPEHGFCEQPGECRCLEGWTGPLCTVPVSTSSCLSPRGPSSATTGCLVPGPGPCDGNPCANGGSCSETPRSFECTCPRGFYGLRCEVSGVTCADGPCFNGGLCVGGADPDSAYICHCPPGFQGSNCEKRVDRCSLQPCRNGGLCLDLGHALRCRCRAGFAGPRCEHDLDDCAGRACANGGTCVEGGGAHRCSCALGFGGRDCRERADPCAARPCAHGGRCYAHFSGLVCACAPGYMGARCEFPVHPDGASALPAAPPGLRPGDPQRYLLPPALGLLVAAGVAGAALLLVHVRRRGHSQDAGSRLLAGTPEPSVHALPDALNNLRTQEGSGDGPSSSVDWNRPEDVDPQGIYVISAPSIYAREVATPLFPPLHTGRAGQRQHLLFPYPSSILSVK
Description: as §1

Kd [1]: 58.8 nM
koff [1]: 0.0137 s⁻¹
kon [1]: 233000 M⁻¹ s⁻¹
EC50 [2]: 10.4 nM
EC50 [3]: 15.6 nM
B1: DLL3-mAb-1 (antibody, human IgG1, kappa, V domains shown)
VH: QVQLQESGPGLVKPSQTLSLTCTVSGDSISSDGYYWSWIRQHPGKGLEWIGYIYYSGNTYYNPSLKSRVTISVDTSKNQFSLKLTSVTAADTAIYYCAIDTASALAYWGQGTLVTVSS
VL: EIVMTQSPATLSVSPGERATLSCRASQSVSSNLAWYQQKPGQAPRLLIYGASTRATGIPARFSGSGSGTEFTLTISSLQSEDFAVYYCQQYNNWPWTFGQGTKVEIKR
notes: It was captured on a protein G chip and detected with anti-human IgG1, and it is a fully human antibody with a fixed human kappa light chain; also called anti-DLL3 mAb-1; anti-DLL3 antibody DLL3-mAb-1
